Molecular target: recombinant EBV LMP2A N-terminal cytoplasmic domain (LMP2A-NCD), His6-tagged (Epstein-Barr virus) (UniProt P13285)
Assay: SPR; BIAcore T200; LMP2A-NCD immobilised on Sensor Chip CM5; affibodies flowed at 2.5-20 μM; global fit, one-to-one Langmuir binding model

UniProt P13285, sequence (P13285 1-119): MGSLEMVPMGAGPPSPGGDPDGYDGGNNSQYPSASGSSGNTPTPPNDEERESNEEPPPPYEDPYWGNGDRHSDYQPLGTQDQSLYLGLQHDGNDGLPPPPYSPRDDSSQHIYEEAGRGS

Substance: ZWT affibody (wild SPA-Z scaffold) (designed binder)
- koff: 5.96e-05 s⁻¹
